The series is described as follows: yeast display, Sf9 membrane polyspecificity reagent, FACS + sequencing; frameworks hold sequencing errors. The essentials:
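Genes from sorted yeast were amplified by colony PCR, read by MiSeq 2 × 250 sequencing and filtered on CDR length. These cells carried a synthetic nanobody library in Saccharomyces cerevisiae BJ5465 and were sorted by FACS into low and high (top ~1%) gates on anti-HA and streptavidin fluorescence. Polyreactivity is labelled according to the gate of origin.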
Take “QVQLVESGGGLVQAGGSLRLSCAASGYIIGGNAMGWYRQAPGKERELVAVISSRGGRTYYADSVKGRFTISRDNAKNTVYLQMNSLKPEDTAVSYCNRDFSYQYKRDYWGQGTQVTVSS”: the “polyreactivity (PSR sort gate)” value is given as “high polyreactivity”.

On to “QVQLVESGGGLVQAGGSLRLSCAASGRIFRRYAMGWYRQAPGKEREFVAAITDGSTYYADSVKGRFTISRDNAKNTVYLQMNSLKPEDTAVYYCATQYGWSYSRRFYYWGQGTQVTVSS”, for which the “polyreactivity (PSR sort gate)” value is “high polyreactivity”.

Turning to “QVHLVESGGGLVQAGGSLRLSCAASGRTFVFNAMGWYRQAPGKEREFVAAITWGGGSTYYADSVKGRFTISRDNAKNTVYLQMNSLKPEDTADYYCARPTTYGYYYWGQGTQVTVSS”, the “polyreactivity (PSR sort gate)” value is on record as “high polyreactivity”.

As for “QVQLVESGGGLVQAGGSLRLSCAASGRTFDGNAMGWYRQAPGKEGEFVATISTDGGSTHYADSVKGRFTISRDNAKNTVYLQMNSLKPEDTAVYYCAADTPWYDDNYDYWGQGTQVTVSS”, the “polyreactivity (PSR sort gate)” value is given as “low polyreactivity”.

Take “QVQLVESGGGLVQAGGSLRLSCAASGSTFGLYAMGWYRQAPGKERELVAAIRWSGASTYYADSVKGRFTISRDNAKNTVYLQMNSLKPEDTAVYYCARRALGPRRGIRYDYWGQGTQVTVSS”: the “polyreactivity (PSR sort gate)” value is given as “high polyreactivity”.

For the sequence “QVQLVESGGGLDQAGGSLPLSCAASGITSYVYAMRWYRQAPGKERELVASISWTGGNTYADSVKGRFTISRDNAKNTVYLPMNSLKPEDTAVYYCNAGRSWDYWYGYDYWGQGTQVTVSS”, the “polyreactivity (PSR sort gate)” value is recorded as “low polyreactivity”.

In the case of “QLQLVESGGGLVQAGGSLRLSCAASGRIFVLYTMGRNRQATGKERELVAAISNVGSTNYADSVKGRFTISRDNAKYTVYLQMNSLIPEDTAVYYCNDRRRYGWHLYYYWGQGTQVTVSS”, the “polyreactivity (PSR sort gate)” value was “high polyreactivity”.

Take “QVQLVESGGGLDQAGGSLRLSCAASGRTYYLYAMGWYRQAPGKERELVAAITFNGGSTYYADSVKGRFTISRDNGKNTVYLQMNSLKPEDTAVDYCAGRLSKRSGYYYWGQGTQVTVSS”: the “polyreactivity (PSR sort gate)” value is recorded as “high polyreactivity”.

Take “QVQLVESAGGLVQAGGSLRLSCAASGRIFYLYAMGWYRQAPGQERELVARITSGSGTYYADSVKGRFTISRDNAKNTVYLQMNSLKPEDTGVYYCAAREPGVCFVGHYTGLDYWGQGTQVTVSS”: the “polyreactivity (PSR sort gate)” value was “low polyreactivity”.

As for “QVQLVESGGGLVQAGGSLRLSCAASGRTFTVNAMGWYRQAPGKERELVARISYGGARTYYADSVKGRFTISRDNAKNTVYLQMNSLKPEDTAVYYSAAPGPRKYEYDYWGQGTQVTVSS”, the “polyreactivity (PSR sort gate)” value is listed as “high polyreactivity”.

“QVQLVESGGGLVQAGGSHRLSCAASGSTFGSNAMGWYRQAPGKERELVAARTIGGSTNYADSVKGRFTISRDNAKNTVYLEMTSLKPEETAVYYCNADPQQSKLWTYFFGFPGYYWGQGTQVTVSS”: the “polyreactivity (PSR sort gate)” value is reported as “low polyreactivity”.

For the sequence “QVQLVESGGGLVQAGGSLRLSCAASGYTFGQYAMGWYRQAPGKEREMVAAISSGGGSTYYADSVKGRFTISRDNAKTTVYLQMNSLKPEDTAVYYCAAQYLYPTYRYGYWGQGTQVTVSS”, the “polyreactivity (PSR sort gate)” value is “high polyreactivity”.

Regarding “QVQLVESGGGLVQAGGSLRLSCAASGSIFWDYAMGRYRQAPGKERELVASITSGGSTYYADSVKGRFTISRDNAKNTVYLQMNSLKPEDTAVYYCAADGHTRHWGQTGRGAMYYWGQGTQVTVSS”, the “polyreactivity (PSR sort gate)” value is “low polyreactivity”.

Turning to “QVQLVESGGGLVQAGGSLRLTCDASGSSFIFNAMGWSRQAHGIEMELVAGITRRVDSTFYADSVKGRFTISRDNAKNTVYLQMTSLKPEDTGVFFFAARQYSGVKYNYWGQGTEVTVSS”, the “polyreactivity (PSR sort gate)” value was “high polyreactivity”.

Take “QVQLVESGGGLVQAGGSLRLICAASGFIFWDNAMGWYRQAPGKERELVAAISKSGTRTYYADSVKGRFTISRDNEKNTVYLQMNSLKPEDTAVYYCAAEGSGYEYYYWGQGTQVTVSS”: the “polyreactivity (PSR sort gate)” value is listed as “high polyreactivity”.

“QVQLVESGGGLVQAGGSLRLSCAASGLIFYKYAMGWYRQAPGKEREFVAAISGSGGSTYYADSVKGRFTISRDNAKNTVYLQMNSLKPEDTAVYYCAVRQRYGPARYDYWGQGTQVTVSS”: the “polyreactivity (PSR sort gate)” value is “high polyreactivity”.

“QVQLVESGGGLVQAGGSLRLSCAASGFTFQEYAMGWYRQAPGKERELVAAITSGTTTNYADSVKGRFTISRDNAKNTVYFQMNSLKPEDTAVYYCNVRSQSGSYRVYEYDYWGQGTQVTVSS”: the “polyreactivity (PSR sort gate)” value was “low polyreactivity”.

“QVQLVESGGGLVQAGGSLRLSCAASGRIFRYYAMGWYRQAPGKERELDAAISRSGGSTYYADSVKGRFTISRDNAKNTVYLQMNSLKPEDTAVYYCAARVYRYGAMDYWGQGTQVTVSS”: the “polyreactivity (PSR sort gate)” value is on record as “high polyreactivity”.

Consider “QVQLVESGGGLVQAGGSLRLICAASGRIFRPYAMGWYRQAPGKEREFVATIRFTTGRTYYADSVKGRFTISRDNAKNTVYLQMNSLKPEDTAVYYCAADFAFVNYAKISYTTHDYWGQGTQVTVSS”, for which the “polyreactivity (PSR sort gate)” value was “high polyreactivity”.

For “QVQLVESGGVLVQAGGCLRLSCAASGSIFSVNTMGWYRQAPGKERELVATIRTGDSTNYADSVKGRFTISRDNAKNTVYLQMNSLKPEDTAVYYCAAEWSSLNFEYWGQGSQVTVSS”, the “polyreactivity (PSR sort gate)” value is given as “low polyreactivity”.

Consider “QVQLVESGGGLVQAGGSLRLSCAASGIIFRLYAMGWYRQAPGKERELVAAISYRGGSTYYADSVKGRFTISRDNAKNTVYLQMNSLKPEDTAVYYCAARNPRYSFYYWGQGTQVTVSS”, for which the “polyreactivity (PSR sort gate)” value is on record as “high polyreactivity”.

With “QVQLVESGGGLVQAGGSLRLSCAASGSIFLGNALGWYRQAPGKERELVAAISRSGGRTYYADSVKGRFTISRDNAKNTVYLQMNSLKPEDTAVYYCAARSYGIYYAKEFYYWGQGTQVTVSS”, the “polyreactivity (PSR sort gate)” value is “high polyreactivity”.

Consider “QVQLVESGGGLVQAGGSLRLSCAASGRIFLFYDMGWYRQAPGKERELVATISFRGGSTYYADSVKGRFTISRDNAKNTVYLQMNSLKPEDTAVYYCAKQNKRGYSTSAYYYWGQGTQVTVSS”, for which the “polyreactivity (PSR sort gate)” value was “low polyreactivity”.

“QVQLVESGGGLVQAGGSLRLSCAASGSIFKINTMGWYRQAPGKERELVAAISKRGGSTYYADSVKGRFTISRDNAKNTVYLQMNSLKTEDTAVYYCAARQFYKYYYWGQGTQVTVSS”: the “polyreactivity (PSR sort gate)” value was “high polyreactivity”.

Consider “QVQLVQSGGGLVQAGGSLRLSCAASGRIFGSYAMGWSRQAPGKERELGAAISYSGGSTYYADSVKGRFTMSRDNAKNTVYLQMHSLKPEDTAVYYCNVDRYYGYFSVRGGYWGQGTQGTVSS”, for which the “polyreactivity (PSR sort gate)” value is reported as “low polyreactivity”.

With “QVQLVESGGGLVQAGGSLRLSCAASGSILYYYAMGWYRQAPGKERELVAAISSGGSTYYADSVKGRFTISRDNAKNTVYLQMNSLKPEDTAVYYCAARRDNPWAKAPRYKMYYWGQGTQVTVSS”, the “polyreactivity (PSR sort gate)” value is recorded as “high polyreactivity”.

With “QVQIVESGGGLVQAGGSLRLSCAASGLTFAYYAMGRYRQAPGKERELVAAISYSGGSTYYADSVKGRFTISRDNAKITVYLQMNSLKPEDTAVYYCNAYSRKTPHLYYYWGQGTQVTVSS”, the “polyreactivity (PSR sort gate)” value is recorded as “high polyreactivity”.

For the sequence “QVQLVESGGGLVQAGGRLRLSCAASGSNFTYYAMGWYRKAPGKEREFVAAISRRGGSTYYADSVKGRFTISRDNAKNTVYLQMNSLKPEDTAVYECNARYTGSSLYYWGQGTQLTVSS”, the “polyreactivity (PSR sort gate)” value is given as “high polyreactivity”.

As for “QVQLVESGGGLVQAGGSLRLSCAASGRIFLTNTMGWYRQAPGKERELVAGISRGGRTYDADSVKGRFTISRDNAKNTVYLLKNSLKPEDTAVYYCAGRHRTPIYPYKRDYWGQGTQVSVSS”, the “polyreactivity (PSR sort gate)” value is “high polyreactivity”.

In the case of “QVQLVESGGGFVQARGSLRLSCAASGSIFWLYAMGWYSQAPGKERELVAAISWSTGGTYYADSVKGRFTISRDNAKNTVYLQMNSQKPEDTAVYYCNKLWVGKFKRYEFGYWGQGTQVTVSS”, the “polyreactivity (PSR sort gate)” value is recorded as “low polyreactivity”.

“QVQLVESGGGLVQAGGSLRLSCAASGRIIDTYAMGWYRQAPGKERELFASISRSDTSTSYADSVKGRFTISRDNAKNTVYLQMNCLKPEDTAVYYCNKDGVTVTNSKRYDYLGQGTQVTVSS”: the “polyreactivity (PSR sort gate)” value is on record as “low polyreactivity”.

For the sequence “QVQLVESGGGLVQAGGSLRLSCAPSGLTFDVYAMGWYRQAPWKQRELVAAISSIGGSTYYADSVKGRFTISRDTAKNTVYVQMNSLKPEDTAVYYCAAAISLYSYDYWGQGTQVTVSS”, the “polyreactivity (PSR sort gate)” value was “low polyreactivity”.

With “QVQLVESGGGLVQAGGSLRLSCAASGRIFTDYDMGGYRHAPGKERELVASISGSDGNTDYADSVKGRFTISRDNAKNTVYLQMNSLKPEDTAVYYCAADLRVYDFFRYPETYGYWGQGTQVTVSS”, the “polyreactivity (PSR sort gate)” value is reported as “low polyreactivity”.

For “QVQLVESVGGLDQAGGSLRLSCAASGFILSWYAMGWYRQAPGKERELVAGISRRGGSTYYADSVTGRFTISRDNAKNTVYLQMNSLKPEDTAVYYCNALYDEWSVSTGDYWGQGTQVTVSS”, the “polyreactivity (PSR sort gate)” value was “high polyreactivity”.

Regarding “QVQLVKSGGGLVQAGGSLRLSCAASGSTFYNAMGWYRQAPGKERELVAAISIGGSTYYADSVKGRFTNSRDNAKNTVYLQMNSLKPEDTAVYYCNTETGPSPVPVYDTEFDSWGQGTQVTVSS”, the “polyreactivity (PSR sort gate)” value is reported as “low polyreactivity”.

As to “QVQLVESGGGLVQAGGSLRLSCAASGSIFFTNTMGWYRKAPGKERELVAAITSGGSTNYADSVKGRFTISRDNAKNTVYLQMNSLKPEDTAVYYCAARYQPWLKYDFDSWGQGTQVTVSS”, the “polyreactivity (PSR sort gate)” value is recorded as “low polyreactivity”.

On to “QVQLVESGGGLVQAGGSLRLSCAASGSTFYIYAMGWYRQAPGKERELVARISGSGGSTYYADSVKGRFTISRDNAKNTVYLQMNSLKPEDTAVYYCAADYIYKYYQYYAFPYYRYDYWGQGTQVTVSS”, for which the “polyreactivity (PSR sort gate)” value is given as “low polyreactivity”.

With “QVQLVESGGGLVQAGGSLRLSCAASGLTCSRNAMGWYRQAPGKERELVAAINWSGGSTYYADSVKGRFTISRDNAKNTVYLQMNSLKPEDTAVYYCAAEYAPSPYDWGYEYWGQGTQVTLSS”, the “polyreactivity (PSR sort gate)” value is on record as “high polyreactivity”.

Consider “QVQLVESGGGLVQAGGSLRLSCAASGRTFPYNAMGWYRQAPGKERELVAGITGGGSTYYADSVKGRFTISRDNAKKTVYLQMNSLKPEDTAVYYCAADRYFLYGTYPDVEFNYWGQGTQVTVSS”, for which the “polyreactivity (PSR sort gate)” value is listed as “high polyreactivity”.

In the case of “QVQLVESGGGLVQAGGSLRLSCAASGSTFGVYARGWYRQAPGKERELVAAISSSTGSTYYADSVKGRFTISRDNEKNTVYLQMNSLKPEDTAVYYCAAAGYGKVRGDYWGQGTQVTVSS”, the “polyreactivity (PSR sort gate)” value is recorded as “low polyreactivity”.

(Values after the nanobody polyreactivity screen of Harvey et al. (2022).)
